Biological target: T1, human connexin45 (Cx45) (human, UniProt P36383 1-396)
T1 construct: whole, on cells; Hemichannel expressed in HEK 293FT cells for FETCH; non-docking benchmark partner of Cx36; also called GJC1; not shown: C-terminal fluorescent protein fusion (mEmerald or RFP670 in FETCH)
Experiment: FETCH (flow cytometry of co-plated HEK 293FT cells), benchmark pair
Protocol: Complete FETCH methodology is outlined in Ransey et. al. 2021 (Ransey E, et al. (2021) BioRxiv). Briefly, replica multi-well plates with HEK 293FT cells were transfected with either of the two connexin proteins being evaluated for docking. Following a transfection incubation period, experimental counterparts were combined, replated, and further incubated for about 20 hr to about 24 hrs, allowing cells to make contacts and potentially generate connexosomes. Co-plated samples were trypsinized, fixed in suspension and analyzed via flow cytometry. Flow cytometry data was processed with two selection gates prior to their fluorescence evaluation. First, putative HEK cells were identified by evaluating sample forward vs. side scatter area. Next, single cells were identified as the putative cells that maintained a linear correlation of forward scatter height to forward scatter area. Finally, the dual fluorescence (mEmerald vs. RFP670) profiles of each sample was generated, and the FETCH score was defined as the proportion of dual-labeled fluorescent cells that develop in a co-plated sample.
For screening analysis, five FETCH replicates were obtained for each condition (mutation). […] To quantitatively determine whether a connexin pair docked, FETCH scores were determined for the dual fluorescence of cells under conditions where docking was not anticipated. […]

T1 sequence (P36383 whole entry, the tested form may be a part): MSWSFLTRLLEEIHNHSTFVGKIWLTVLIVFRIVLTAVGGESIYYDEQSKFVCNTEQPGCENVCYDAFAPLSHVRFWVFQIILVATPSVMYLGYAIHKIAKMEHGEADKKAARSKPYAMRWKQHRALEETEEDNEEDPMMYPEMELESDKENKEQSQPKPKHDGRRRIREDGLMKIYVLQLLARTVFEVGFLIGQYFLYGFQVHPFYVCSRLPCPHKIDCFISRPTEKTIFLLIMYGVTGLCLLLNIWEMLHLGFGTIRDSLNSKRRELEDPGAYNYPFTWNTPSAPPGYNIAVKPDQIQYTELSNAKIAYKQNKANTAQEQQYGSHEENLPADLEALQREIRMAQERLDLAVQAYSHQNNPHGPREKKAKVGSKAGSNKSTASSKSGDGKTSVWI

binding result: no binding
B1: human connexin36 (Cx36) (other, UniProt Q9UKL4 1-321, looked up)
chain: MGEWTILERLLEAAVQQHSTMIGRILLTVVVIFRILIVAIVGETVYDDEQTMFVCNTLQPGCNQACYDRAFPISHIRYWVFQIIMVCTPSLCFITYSVHQSAKQRERRYSTVFLALDRDPPESIGGPGGTGGGGSGGGKREDKKLQNAIVNGVLQNTENTSKETEPDCLEVKELTPHPSGLRTASKSKLRRQEGISRFYIIQVVFRNALEIGFLVGQYFLYGFSVPGLYECNRYPCIKEVECYVSRPTEKTVFLVFMFAVSGICVVLNLAELNHLGWRKIKLAVRGAQAKRKSIYEIRNKDLPRVSVPNFGRTQSSDSAYV
notes: whole, on cells; Hemichannel expressed in HEK 293FT cells for FETCH; also called GJD2; not shown: C-terminal fluorescent protein fusion (mEmerald or RFP670 in FETCH)
